In patent US10215752B2, “Nanotube array for optical detection of protein-protein interactions” (MASSACHUSETTS INSTITUTE OF TECHNOLOGY, priority 2010, dated 2019):

Target: p16 (Homo sapiens, UniProt Q8N726)
Assay: Protein-protein interaction on SWNT/CHI array, Förster distance calculation
Conditions: distance change after analyte protein p16, Förster equation
Procedure: Reaction mixtures for cell-free protein expression were added to each array wells. The fluorescent intensities of each SWNT/CHI well were taken to track the intensity changes. To initiate protein synthesis, 1 μl PCR-amplified DNAs were added to each well a humidified chamber at 37° C. for 2 hours. The arrays were washed three times for 10 min each with PBS buffer (pH 7.4, 100 mM) at RT and then PL spectra were taken. To analyze protein-protein interaction on SWNT/XHI array, anti-Histag antibody or cell-free expressed protein mixtures were added to each well and then PL spectra were taken to compare the intensity change.
Near-infrared photoluminescence spectra were acquired using 785 nm excitation and an Acton SP-150 spectrograph coupled to a Princeton instruments OMA V InGaAs detector or with Kaiser Holospec f/1.8 Imaging Spectrograph (Kaiser Optical).

Sequence of p16 (Q8N726 with tags, fused parts or gaps): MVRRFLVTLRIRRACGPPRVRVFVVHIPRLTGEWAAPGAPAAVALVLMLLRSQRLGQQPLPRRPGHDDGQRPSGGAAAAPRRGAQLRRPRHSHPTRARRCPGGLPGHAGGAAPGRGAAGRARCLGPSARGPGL

- Δd2: 0.06338
B1: CDK4: human derived protein (ExPASy P11802), on-chip cell-free expressed with His-tag (protein, UniProt P11802 2-303, looked up)
Cyclin-dependent kinase 4: ATSRYEPVAEIGVGAYGTVYKARDPHSGHFVALKSVRVPNGGGGGGGLPISTVREVALLRRLEAFEHPNVVRLMDVCATSRTDREIKVTLVFEHVDQDLRTYLDKAPPPGLPAETIKDLMRQFLRGLDFLHANCIVHRDLKPENILVTSGGTVKLADFGLARIYSYQMALTPVVVTLWYRAPEVLLQSTYATPVDMWSVGCIFAEMFRRKPLFCGNSEADQLGKIFDLIGLPPEDDWPRDVSLPRGAFPPRGPRPVQSVVPEMEESGAQLLLEMLTFNPHKRISAFRALQHSYLHKDEGNPE
modifications: His-tag
